From paper PMC5675595

B1: FLAG-tagged IRAK2 WT [mouse] / ALYREF [human (endogenous in IL1R-293 and HeLa)] (parent)
chain 1: MACYIYQLPSWVLDDLCRNIDTLSEWDWMQFASYVITDLTQLRKIKSMERVQGVSITRELLWWWSMRQATVQQLVDLLCHLELYRAAQIVLSWKPVPESTSPLPAFPEAVKPGAVATSRRNLKDEQEKVRPVKPRSLLDTGPIMAGAQRQRPCEMDAPCSLKTDAPDSPQSKYCSTSTSAPKQERLLGLPGDRLFWSEADVVQATEDFDQSHRISEGTFADIYQGQRNGVAFAFKKLREVAGSSPGSMDRFLQAEMQLCLRCCHANVLPLLGFCTGRQFHSLIYPYMANGSLHDRLWAQGNSDMLPWPQRASICSGLLLAVEHLHSLDIIHSNVKSANVLLDQHLNPKLAHPVAHPHPDNKKTKYTVMRTHLFQASAAYLPEHFIRVGQLTKQVDIFSCGIVLAEVLTGIPAMDKDRSPVYLKDLLLSEIPNSTSSVCSRKTSMGKAVVKEICQRHVEKRAGLLPEACEEAWATAVSVCLRRRNASVEEARVSLAGVEEQLRGQLSLPWSRVSEATGSSSNTPEETDDVDNSSLSVPSLVMMASCPGAASSPLFTGHGAAQPSTSGRQEADSSSEACTGPQTPQNATETSWKIEINEAKRRLMENIVLYKEERLDSSELFGP
chain 2: not shown

Variants of: B1
Test: proximity ligation assay (PLA)
Settings: with ALYREF [human (endogenous in IL1R-293 and HeLa)]; Hela cells transfected; Mouse anti-ALYREF and Rabbit anti-FLAG antibody; read off a plot

| Variant | response (% PLA positive cells) |
| --- | --- |
| chain 1 K123R K182R K592R | 0.45 |
| chain 1 K235A K236A | 0.2 |
| chain 1 K361A K362A K364A | 0.6 |
